The values that follow come from publication PMC3697942.

The target in the series is T1, HB5 (HOMEOBOX PROTEIN 5, class I HD-ZIP) (Arabidopsis thaliana, UniProt P46667 1-312).
T1 sequence: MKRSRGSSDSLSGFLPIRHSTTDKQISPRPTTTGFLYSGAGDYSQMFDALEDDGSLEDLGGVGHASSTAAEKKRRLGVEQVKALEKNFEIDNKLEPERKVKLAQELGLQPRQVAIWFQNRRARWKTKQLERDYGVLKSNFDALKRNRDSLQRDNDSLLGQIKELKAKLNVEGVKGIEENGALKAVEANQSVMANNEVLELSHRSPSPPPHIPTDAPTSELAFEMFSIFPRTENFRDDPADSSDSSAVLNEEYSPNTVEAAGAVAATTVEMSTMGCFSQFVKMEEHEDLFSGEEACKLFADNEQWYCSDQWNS
Description: EMSA. In general terms: Mobility shift assays separate free from complexed probe on a gel.

B1: PF 36bp (dsDNA)
DNA 1: GGCCCGCCATTACAAGACATATGGGTCCCAATTCTCATCACGGGCC
DNA 2: GGCCCGTGATGAGAATTGGGACCCATATGTCTTGTAATGGCGGGCC
Turning to B1, the binding result is on record as “binds”.
